System: MS2 coat protein
Test: apparent KD of MS2 coat protein; designed switch direction (-1 OFF switch, 1 ON switch): -1; higher = weaker reporter binding
How it was run: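 Designed RNA switches with common flanks were transcribed on Illumina chips by stalled E. coli RNA polymerase and titrated with SNAP-549-labelled MS2 coat protein, from 0.7 or 1.5 nM doubling to 3 µM, in Tris-HCl pH 7.5 buffer with KCl, MgCl2, BSA, DTT, tRNA and Tween-20. Steps lasted 0.8–1.5 h (lowest) to 10–20 min (highest). Titrations ran without input, with 200 uM small-molecule ligand, or with an oligonucleotide input. Normalised cluster fluorescence was curve-fitted, and apparent KD is the per-design median over clusters.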

[1] = input ligand: microRNA oligo, concentration not stated
[2] = Eterna round: R95, input ligand: FMN 200 uM
[3] = Eterna round: R95, input ligand: microRNA oligo, concentration not stated
[4] = Eterna round: R95, input ligand: none

| Sequence | apparent KD of MS2 coat protein (input ligand: FMN 200 uM) [nM] | apparent KD of MS2 coat protein (input ligand: none) [nM] | apparent KD of MS2 coat protein [3] [nM] | other results |
| --- | --- | --- | --- | --- |
| GGCGCCUCAGGAUAUCAGUCUGGAUCAGAAAAGAUCCUGACUGAGAAGGGACAUGAGGAUCACCCAUGUUCGCC [Mat - Exclusion 4 - Eli Mod - D52] (Eterna round: R97, puzzle: Exclusion 4) | 17.3 | 18.4 |  |  |
| GGCUUGCUAGUAGGAUAUCGCUUGUACAUGAGGAUCACCCAUGUGUGAUAUGCCUACAUAGUGCGUGAGAAGGACUGCAAGCCG [Diatdiinin] (Eterna round: R96, puzzle: Exclusion NG 2) | 23.2 | 14.1 |  | apparent KD of MS2 coat protein [1]: 8.15 nM |
| GGGAUGUCAGGAUAUCCGAAAGUCUACCAAUACGGCAGACAGGAGAAGGGACAUGAGGAUCACCCAUGUAAAGA [Quatma] (puzzle: Exclusion 4) |  |  | 36.7 | apparent KD of MS2 coat protein [2]: 114 nM; apparent KD of MS2 coat protein [4]: 52.4 nM |
| GGGCAGGGAGGAUAUGUAUCGCACUACAUGAGGAUCACCCAUGUGCCUUUUGUGACGUGGACAGAAGGUCCUGCCG [Eternabot (L1) Solution 17] (Eterna round: R97, puzzle: Exclusion 5) | 129 | 193 |  |  |
| GGGCCCGGAGGAUAUACAAUGGGCCCGGGAAAUUGGGCCCUACAUGAGGAUCACCCAUGUAGAAGGCCGGGCCC [-40.2, -38.1 kcal A 24%, 5c,0] (Eterna round: R97, puzzle: Exclusion 2) | 16.1 | 12.5 |  |  |
| GGGCUGUCAGGAUAUGUGUGUGUGUGUGAAAGCGCGCGCGCGCAGAAGGGACAUGAGGAUCACCCAUGUGGCCC [-35.3, -34.3 kcal, A 20%, 6bis-0] (Eterna round: R97, puzzle: Exclusion 4) | 32.1 | 33 |  |  |
| GGGCUUAAAGGAUAUGCAAGGAGCCACAUGAGGAUCACCCAUGUACAACCUCAGUCCCUGGUAGAAGGUUACGCAA [whoooo] (Eterna round: R97, puzzle: Exclusion 5) | 35 | 30.6 |  |  |
| GGGUAGUGAGGAUAUCUUGGCAAACCCGAACCUGUCAGCCAAGAGAAGGCACUUGAGGAUCACCCAAGUACAGG [Raeratti] (Eterna round: R97, puzzle: Exclusion 4) | 88.7 | 26.8 |  |  |
| GGGUGACAUGAGGAUCACCCAUGUCAGGAUAUGAUACUAUGUACUUCGGUACAUAGUAUCAGAAGGGACAUCCC [Ex1-3: 16] (puzzle: Exclusion 1) |  |  | 41.8 |  |
| GGUACUAACACGAAAGUGUUAGUACUGUAGGUUUGUGUUACAUGAGGAUCACCCAUGUCCUCAUAAGCUCGUCUUGU [JL-sv3-2.22 mat747 mod] (puzzle: Sensor v3, turn-off variant 2) |  |  | 246 | apparent KD of MS2 coat protein [2]: 306 nM; apparent KD of MS2 coat protein [4]: 347 nM |
| GGUACUAUCACCUGAGUGGUAGUGCCAUAAGCUUGUGAUACAUGAGGAUCACCCAUGUCCUCAUUUGCUCGUCUUAU [JL-sv3-2.27 JL mod] (puzzle: Sensor v3, turn-off variant 2) |  |  | 394 | apparent KD of MS2 coat protein [2]: 486 nM |
| GGUAGAGAGCAGGAUAUCUUGGGUAAGUAUCGUAGAGAAGGGCUCACAUGAGGAUCACCCAUGUGGUCCAAGAU [JL Dibiri mod 05] (puzzle: Exclusion 6) |  |  | 14.2 |  |
| GGUCAACGUGUGAGGAUAUGUCAACCCUGUGGAAAGCAGAAGGCACAUGAGGAUCACCCAUGUAAUAAGAAAAC [Soasois] (Eterna round: R97, puzzle: Brourd's mod of Exclusion 4) | 29.9 | 262 |  |  |
| GGUCCACAUGAGGAUCACCCAUGUUAGGAUAUCUCGCCCGAGCCCAUAUGGGCCAGGCAGAGAAGGAAUGUGAA [Quertixees] (puzzle: Exclusion 1) |  |  | 18.8 |  |
| GGUCCACAUGAGGAUCACCCAUGUUAGGAUAUCUCGUCCGAGCAGUUAUGGGCCGGGCAGAGAAGGAAUGUGAA [Orbibibi] (puzzle: Exclusion 1) |  |  | 25.7 |  |
| GGUCGACAUGAGGAUCACCCAUGUCAGGAUAUCGUCACUGGAGCCUCGGCUCCAGUGACGAGAAGGGAUAUGAU [E1/17-A2] (Eterna round: R97, puzzle: Exclusion 1) | 41.9 | 43.9 |  |  |
| GGUCUGCGAGGAUAUACAUGAGGAUCACCCAUGUGCGAGAUACUAGUGAGGUCGAUUGGUAGAAGGCGCGGACA [Mat - Exclusion 3 - Mod of JL D84] (puzzle: Exclusion 3) |  |  | 90.4 |  |
| GGUGAAGCAGGAUAUGUAUCGAUAUACAUGAGGAUCACCCAUGUCAUGUUUGAAUCGCAUAUAGAAGGGCUUCACC [Exclusion 5 (FMN-MS2 slide)] (Eterna round: R97, puzzle: Exclusion 5) | 58.1 | 20.8 |  |  |
| GGUGAGCUAGGAUAUGCUUUGGGCACGCAUUCCUUCGAUAAACUUGAGGAUCACCCAAGUAGAAGGAGCUUGCC [salish99_ex2_r4_030] (Eterna round: R97, puzzle: Exclusion 2) | 18.1 | 12.9 |  |  |
| GGUGAGCUAGGAUAUGCUUUGGGCUCGCUUUCCUUCGAUAUACUUGAGGAUCACCCAAGUAGAAGGAGCUUGCC [salish99_ex2_r4_034] (Eterna round: R97, puzzle: Exclusion 2) | 11.1 | 11.2 |  |  |
| GGUGAGCUAGGAUAUGCUUUGGGCUCGCUUUCCUUCGAUUUACUUGAGGAUCACCCAAGUAGAAGGAGCUUGCC [salish99_ex2_r4_035] (Eterna round: R97, puzzle: Exclusion 2) | 13.5 | 12.9 |  |  |
| GGUGCGAGUGUGAGGAUAUGCUGGUCGUAAGAUCAGCAGAAGGCACAUGAGGAUCACCCAUGUGAAAACGUACC [Mat - Exclusion 4 - JL Mod - D75] (puzzle: Brourd's mod of Exclusion 4) |  |  | 18.8 |  |
| GGUGCGUUUGUGAGGAUAUGCUGGUCCUUGGUUCGGCAGAAGGCACAUGAGGAUCACCCAUGUGGUGUCGCACC [salish99_Bmod_Ex4_049] (puzzle: Brourd's mod of Exclusion 4) |  |  | 65.9 |  |
| GGUGGGCUAGGAUAUGCUUUGGGCAGGCAUUCCUUCGAUAAACUUGAGGAUCACCCAAGUAGAAGGAGCUUGCC [salish99_ex2_r4_025] (Eterna round: R97, puzzle: Exclusion 2) | 10.8 | 10.7 |  |  |
| GGUGUCGUCAGAAGACAUGAGGAUCACCCAUGUAAAUGCACUGAGGAUAUACGGGCGACCGGCGUGUAGAAGGUAGAGCACGAA [Ladivequ] (Eterna round: R96, puzzle: Exclusion NG 3) | 43 | 41.6 |  | apparent KD of MS2 coat protein [1]: 24.5 nM |
